# Patent US8999320B2, “Nanoscale bound bilayers, methods of use and production” (The Rockefeller University, priority 2008, dated 2015)
# Columns and labels:
# [1] = molecular target: T1, CCR5 (Homo sapiens, UniProt P51681); test: High-throughput G-protein activation assay (BODIPY-FL-GTPγS binding) with CCR5-NABBs; assay type: biochemical; conditions: 50 nM RANTES, CCR5 in NABBs
# T1 construct: made in house; host or cells: HEK-293 cells stably expressing CCR5, immunopurified on 1D4-sepharose
# Experimental: A black, C-bottom 96-well plate was used for the high-throughput G-protein activation assay. 25 μL of purified G protein or its subunits were added to the microplate wells from a […] protein stock. The added proteins were either Gi1α subunit, Gi1α with transducin βγ subunits, or holotransducin (Gt), with 25 μl of buffer G1 without GDP. […] 100 μL of CCR5-NABB solution with and without RANTES were added to the respective wells and the microplate incubated at room temperature for 15 minutes. 60 μL of BODIPY-FL-GTPγS was added from a 1 μM stock to all wells using a multi-channel pipettor. The plate was shaken for 30 seconds, covered and incubated at room temperature for 5 minutes. The fluorescence in the wells was recorded using a Cytofluor II microplate reader with excitation wavelength at 485 nm and 20 nm bandpass, emission wavelength at 530 nm and 25 nm bandpass. The gain was set to 95 and 15 reads were integrated for each well. The fluorescence values from the wells containing BODIPY-FL-GTPγS and no G protein was subtracted from the rest of the data as background. The fluorescence values from wells containing the CCR5-NABBs with no RANTES was subtracted from RANTES-containing wells to determine the RANTES-specific response.
# CCR5 activation of G protein was measured by binding of a fluorescently labeled nucleotide analog BODIPY-FL-GTPγS. […]
# [2] = tested on: 2D7 capture antibody; test: Sandwich ELISA with conformation sensitive 2D7 capture and 1D4 detection antibodies; assay type: binding; conditions: CCR5 from HEK-293 cells; 30 minutes at room temperature; sample 1 = DDM, CHAPS, DOPC/POPC
# Experimental: The primary (capture) antibody was diluted to 1 μg/mL in 1×PBS pH 7.2 and 100 μL was added to each well of the microplate (Costar clear-bottom, black 96-well). The plate was stored overnight at 4° C. The plate wells were washed twice with PBS containing 0.05% Tween-20 and once with PBS and 200 μL of 10 mg/mL (1%) fatty-acid free BSA in PBS. The plate was either incubated at room temperature for 2 hours or overnight at 4° C. G-protein coupled receptor (GPCR)—NABBs were added to the respective wells in a final volume of 100 μL. GPCR-NABB was diluted in PBS containing 1 mg/mL (0.1%) BSA. The microplate was incubated at 4° C. overnight to ensure complete binding of epitope on the GPCR-NABB to the capture antibody. The analyte was then washed 3 times with 0.1% BSA-PBS using 200 μL per wash. […] The fluorescence in the wells was measured using a Cytofluor-II spectrofluorimeter with excitation at 530 nm and emission at 590 nm.
# Conformational stability of the extracellular side of CCR5 after exposure to different detergents was determined by a sandwich ELISA using 2D7 and 1D4 antibodies. […] The amount of CCR5 bound to the 2D7 capture antibody was measured by detecting the binding of the second antibody-HRP-linked 1D4, and adding a fluorogenic HRP substrate in the microplate wells. […]
# T1 sequence (P51681 whole entry): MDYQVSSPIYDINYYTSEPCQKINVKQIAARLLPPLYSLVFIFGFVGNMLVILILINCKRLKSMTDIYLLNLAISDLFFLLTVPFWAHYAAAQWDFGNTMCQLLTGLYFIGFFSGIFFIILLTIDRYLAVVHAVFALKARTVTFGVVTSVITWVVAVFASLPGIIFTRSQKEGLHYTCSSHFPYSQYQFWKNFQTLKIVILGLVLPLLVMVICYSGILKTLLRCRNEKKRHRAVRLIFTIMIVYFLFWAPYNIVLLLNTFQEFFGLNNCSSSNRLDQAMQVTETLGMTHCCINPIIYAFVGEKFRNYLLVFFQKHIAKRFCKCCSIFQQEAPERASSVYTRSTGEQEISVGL
"enhancement of B-GTPγS binding to the G protein, compared with unstimulated CCR5-NABBs [1]",Molecule,2D7/1D4 sandwich ELISA signal relative to sample 1 [2] [%]
up to 30%,RANTES: ligand used to stimulate CCR5 in NABBs,–
–,"CCCCCCCCCCCCO[C@@H]1O[C@H](CO)[C@@H](O[C@H]2O[C@H](CO)[C@@H](O)[C@H](O)[C@H]2O)[C@H](O)[C@H]1O [DDM, n-dodecyl-beta-D-maltopyranoside]",65
